Laboratory results published in patent publication US20200317768A1 (published 2020).

Columns and labels:
Experiment in all cases: SPR (Biacore), antibody captured, FcgR analyte
[1] = target: T1, cynomolgus monkey FcγRIIa1 extracellular domain, C-terminal His-tag (cynomolgus monkey)
T1 construct: also called cyno FcγRIIa1; cynoFcgRIIa1
T1 chain: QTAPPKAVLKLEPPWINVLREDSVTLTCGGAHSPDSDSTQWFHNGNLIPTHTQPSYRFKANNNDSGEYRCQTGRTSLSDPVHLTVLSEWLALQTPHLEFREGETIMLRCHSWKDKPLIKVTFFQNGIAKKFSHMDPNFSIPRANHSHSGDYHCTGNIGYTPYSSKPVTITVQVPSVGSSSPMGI

[2] = target: T2, cynomolgus monkey FcγRIIa2 extracellular domain, C-terminal His-tag (cynomolgus monkey)
T2 construct: also called cyno FcγRIIa2; cynoFcgRIIa2
T2 chain: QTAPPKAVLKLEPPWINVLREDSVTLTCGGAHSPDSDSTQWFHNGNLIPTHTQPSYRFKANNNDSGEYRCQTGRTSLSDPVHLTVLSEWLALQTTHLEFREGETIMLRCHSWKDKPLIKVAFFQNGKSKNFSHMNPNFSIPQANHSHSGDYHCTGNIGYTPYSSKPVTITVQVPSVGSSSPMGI

[3] = target: T3, cynomolgus monkey FcγRIIa3 extracellular domain, C-terminal His-tag (cynomolgus monkey)
T3 construct: also called cyno FcγRIIa3; cynoFcgRIIa3
T3 chain: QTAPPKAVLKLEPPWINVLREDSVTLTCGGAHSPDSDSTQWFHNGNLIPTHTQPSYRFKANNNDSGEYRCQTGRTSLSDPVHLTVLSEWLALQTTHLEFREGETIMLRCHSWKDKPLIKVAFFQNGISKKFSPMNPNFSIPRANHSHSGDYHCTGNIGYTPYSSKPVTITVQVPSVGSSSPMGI

[4] = target: T4, cynomolgus monkey FcγRIIb extracellular domain, C-terminal His-tag (cynomolgus monkey)
T4 construct: also called cyno FcγRIIb; cynoFcγRIIb
T4 chain: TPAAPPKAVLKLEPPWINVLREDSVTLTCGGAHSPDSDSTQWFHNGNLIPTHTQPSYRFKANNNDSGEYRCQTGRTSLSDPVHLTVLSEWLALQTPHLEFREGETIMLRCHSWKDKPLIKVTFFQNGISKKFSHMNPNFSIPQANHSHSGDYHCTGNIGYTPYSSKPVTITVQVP

[5] = target: T5, cynomolgus monkey FcγRIIIaS extracellular domain, C-terminal His-tag (cynomolgus monkey, UniProt Q8SPW2 21-206 at identity 1.00))
T5 construct: also called cyno FcγRIIIaS; cynoFcγRIIIaS
T5 chain: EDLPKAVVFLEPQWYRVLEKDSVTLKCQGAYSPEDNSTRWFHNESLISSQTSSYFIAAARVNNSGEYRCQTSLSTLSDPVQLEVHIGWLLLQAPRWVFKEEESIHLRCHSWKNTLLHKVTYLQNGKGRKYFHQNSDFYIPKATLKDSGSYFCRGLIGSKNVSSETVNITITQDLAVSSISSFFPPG

[6] = target: T6, human FcγRIIaH extracellular domain, C-terminal His-tag (human, UniProt P12318 34-217)
T6 construct: also called human FcγRIIa (type H); FcgRIIaH
T6 sequence: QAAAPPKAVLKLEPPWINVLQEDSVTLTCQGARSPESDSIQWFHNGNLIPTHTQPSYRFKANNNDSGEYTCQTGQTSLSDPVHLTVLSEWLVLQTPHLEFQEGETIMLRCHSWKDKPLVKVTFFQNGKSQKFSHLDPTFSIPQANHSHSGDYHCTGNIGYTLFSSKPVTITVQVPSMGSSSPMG

[7] = target: T7, human FcγRIIaR extracellular domain, C-terminal His-tag (human, UniProt P12318 34-217)
T7 construct: also called human FcγRIIa (type R); FcgRIIaR
T7 chain: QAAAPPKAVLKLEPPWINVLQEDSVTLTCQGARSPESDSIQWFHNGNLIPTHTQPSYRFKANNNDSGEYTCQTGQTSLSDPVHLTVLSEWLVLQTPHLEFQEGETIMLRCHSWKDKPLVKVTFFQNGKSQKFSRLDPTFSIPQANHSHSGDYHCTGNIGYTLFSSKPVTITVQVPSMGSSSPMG

[8] = target: T8, human FcγRIIb extracellular domain, C-terminal His-tag (human, UniProt P31994 43-217)
T8 construct: also called human FcgRIIb; FcgRIIb
T8 sequence: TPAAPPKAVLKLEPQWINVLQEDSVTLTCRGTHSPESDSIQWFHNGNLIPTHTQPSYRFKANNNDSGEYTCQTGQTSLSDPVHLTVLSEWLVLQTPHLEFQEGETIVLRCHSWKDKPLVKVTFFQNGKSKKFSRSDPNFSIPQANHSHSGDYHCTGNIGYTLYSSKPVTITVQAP

[9] = target: T9, human FcγRIIIaV extracellular domain, C-terminal His-tag (human, UniProt P08637 17-208)
T9 construct: also called human FcgRIIIaV; FcgRIIIaV
T9 sequence (P08637 17-208 F176V): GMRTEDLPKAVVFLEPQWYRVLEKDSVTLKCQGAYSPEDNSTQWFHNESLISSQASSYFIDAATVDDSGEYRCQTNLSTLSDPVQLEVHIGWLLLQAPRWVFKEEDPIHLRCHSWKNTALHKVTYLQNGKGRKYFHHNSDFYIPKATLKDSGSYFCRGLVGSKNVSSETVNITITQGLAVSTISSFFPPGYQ

- Kd [1]: 890 nM
- Kd [2]: 900 nM
- Kd [3]: 2400 nM
- Kd [4]: 260 nM
- Kd [5]: 4200 nM
- Kd [6]: 850 nM
- Kd [7]: 670 nM
- Kd [8]: 480 nM
- Kd [9]: 23000 nM
B1: M103205H795-MY538/M103202L889-SK1 (Table 19: L235W/G236N/H268D/Q295L/K326T/A330K) (antibody, human IgG1, kappa)
heavy: QVTLKESGPVLVKPTETLTLTCTVSGIDLSHDDISWVRQAPGKGLEWVGIISYAGSTYYASWAKGRLTISKDTSKNQVVLTMTNMDPVDTATYYCARGVPAYSHGGDLWGQGTLVTVSSASTKGPSVFPLAPSSKSTSGGTAALGCLVKDYFPEPVTVSWNSGALTSGVHTFPAVLQSSGLYSLSSVVTVPSSSLGTQTYICNVNHKPSNTKVDKKVEPKSCDKTHTCPPCPAPELWNGPSVFLFPPKPKDTLMISRTPEVTCVVVDVSDEDPEVKFNWYVDGVEVHNAKTKPREELYNSTYRVVSVLTVLHQDWLNGKEYKCKVSNTALPKPIEKTISKAKGQPREPQVYTLPPSREEMTKNQVSLTCLVKGFYPSDIAVEWESNGQPENNYKTTPPVLDSDGSFFLYSKLTVDKSRWQQGNVFSCSVMHEALHNHYTQKSLSLSP
light: DIVMTQSPATLSLSPGERATLSCTSSQSVYHANWLSWFQQKPGQPPKLLIYWASTLAYGVPSRFSGSGSGTDFTLTISSLQPEDAATYYCAGGYGGGRYAFGQGTKVEIKRTVAAPSVFIFPPSDEQLKSGTASVVCLLNNFYPREAKVQWKVDNALQSGNSQESVTEQDSKDSTYSLSSTLTLSKADYEKHKVYACEVTHQGLSSPVTKSFNRGEC
notes: also called MY518 (as the text names this set of substitutions)
